What all share (test): SPR; Biacore T200; His-tagged receptors captured on an anti-histidine antibody CM5 chip (1-5 ug/mL, 30 uL/min); five concentrations (1:2 serial dilutions) of the PVR-Fc constructs flowed over, single-cycle kinetics; HBS-EP (20 mM HEPES pH 7.4, 150 mM NaCl, 0.005% Tween-20, 3.4 mM EDTA); 1:1 Langmuir model
The target of experiment [1] is T1, recombinant mouse CD226-his (mouse, UniProt Q8K4F0 19-254).
T1 construct: mouse CD226 (DNAM1), recombinant; also called mCD226-his; mCD226; source: bought: SinoBiological (50232-M08H)
T1 sequence (looked up): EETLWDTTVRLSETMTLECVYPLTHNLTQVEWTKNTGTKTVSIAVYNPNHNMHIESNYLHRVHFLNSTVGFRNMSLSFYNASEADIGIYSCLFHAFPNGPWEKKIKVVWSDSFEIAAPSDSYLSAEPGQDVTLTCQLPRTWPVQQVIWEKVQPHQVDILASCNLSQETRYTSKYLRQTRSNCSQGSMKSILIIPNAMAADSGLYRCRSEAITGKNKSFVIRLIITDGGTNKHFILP

Experiment [2] concerns the target T2, recombinant mouse CD96-his (mouse, UniProt Q3U0X8 22-536).
T2 construct: mouse CD96 (TACTILE), recombinant; also called mCD96-his; mCD96; source: bought: Biolegend (788806)
T2 sequence (looked up): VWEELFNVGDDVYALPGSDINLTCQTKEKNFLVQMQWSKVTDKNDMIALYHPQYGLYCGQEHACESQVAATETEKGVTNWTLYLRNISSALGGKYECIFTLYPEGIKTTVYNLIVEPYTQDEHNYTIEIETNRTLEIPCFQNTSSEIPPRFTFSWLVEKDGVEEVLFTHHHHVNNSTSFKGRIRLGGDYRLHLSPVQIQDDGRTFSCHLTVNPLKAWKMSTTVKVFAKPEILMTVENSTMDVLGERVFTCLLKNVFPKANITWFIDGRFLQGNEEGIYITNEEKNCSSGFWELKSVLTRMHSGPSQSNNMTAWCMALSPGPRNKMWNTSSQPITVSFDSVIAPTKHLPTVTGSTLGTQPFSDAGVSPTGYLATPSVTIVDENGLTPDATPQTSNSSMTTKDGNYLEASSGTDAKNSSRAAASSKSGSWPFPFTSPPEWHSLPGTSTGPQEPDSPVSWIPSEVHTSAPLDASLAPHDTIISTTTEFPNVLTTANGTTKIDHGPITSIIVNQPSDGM

The target in experiment [3] is T3, recombinant mouse TIGIT-Fc-his (mouse, UniProt P86176 29-148).
T3 construct: mouse TIGIT (T-cell immunoglobulin and ITIM domain), recombinant; also called mTIGIT-Fc-his; mTIGIT; source: bought: Biolegend (771808)
T3 sequence (looked up): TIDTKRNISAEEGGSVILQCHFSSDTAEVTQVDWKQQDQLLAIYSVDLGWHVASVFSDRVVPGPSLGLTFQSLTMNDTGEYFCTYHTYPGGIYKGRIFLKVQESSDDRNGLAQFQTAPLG

Where two headings read alike, the source gives them in different places.

In general, Kd refers to the free concentration of one partner at which half of the binding sites on the other are occupied at equilibrium, for simple one-to-one binding. As a reminder, the koff is a measure of how fast the partners let go of each other. In general, kon refers to the second-order rate constant of association. As for “full length PVR-Fc (full-length mouse PVR ECD-Fc) (Fc fusion)”, the values for the dissociation constant (Kd) in experiment [1], in experiment [2] and in experiment [3] were 0.83 nM, 4.07 nM and 2.26 nM, respectively. The off-rate constant (koff) in experiment [1] was determined as 0.00651 s⁻¹; in experiment [2] it was 0.00455 s⁻¹. In addition, the results for the kon in experiment [1], in experiment [2] and in experiment [3] were 3.2e+06 M⁻¹ s⁻¹, 1.17e+06 M⁻¹ s⁻¹ and 2.25e+07 M⁻¹ s⁻¹, respectively.

B1: vdPVR-Fc (IgV-domain PVR-Fc) (Fc fusion, mouse, UniProt Q8K094 29-147, looked up)
chain: DIRVLVPYNSTGVLGGSTTLHCSLTSNENVTITQITWMKKDSGGSHALVAVFHPKKGPNIKEPERVKFLAAQQDLRNASLAISNLSVEDEGIYECQIATFPRGSRSTNAWLKVQARPKN
notes: murine PVR (poliovirus receptor, CD155), IgV domain of the extracellular domain, residues 29-147 of NP_081790.1; An Ig-kappa leader at the 5' end drives secretion; Migrates as a dimer (~94 kDa) without reducing agent; also called minimal murine PVR-Fc fusion construct; source: Expi293F cells, secreted, purified (protein A); not shown: Fc (human IgG1; P01857 residues 100-330; joined by linker …)
B1: the Kd in experiment [1] (both partners purified) was 0.69 nM; in experiment [2] (both partners purified) it was 1.72 nM; in experiment [3] (both partners purified) it was 2.25 nM. Moreover, the off-rate constant (koff) in experiment [1] (both partners purified) is 0.00184 s⁻¹; in experiment [2] (both partners purified), 0.00286 s⁻¹; in experiment [3] (both partners purified), 0.0656 s⁻¹. The on-rate (kon) in experiment [1] (both partners purified) came out at 2.67e+06 M⁻¹ s⁻¹; in experiment [2] (both partners purified), 3.52e+06 M⁻¹ s⁻¹; in experiment [3] (both partners purified) it was 2.92e+07 M⁻¹ s⁻¹.
